Experiment [1] deals with recombinant TNF-α (Sigma-Aldrich). The experiment can be described thus: reverse ELISA: PAP-IC without peptide on TNF-α-coated plate.
Experiment [2] addresses FcγIIIa (UniProt P08637). The experiment can be described thus: reverse ELISA: PAP-IC without peptide on FcγIIIa-coated plate. (In general: An ELISA detects its analyte on a solid surface through an enzyme-linked reagent.)
Experiment [3] deals with FcγIIa (R131 allele) (UniProt P12318). As to the kind of experiment: reverse ELISA: PAP-IC without peptide on FcγIIa (R131)-coated plate.
Experiment [4] addresses FcγIIb (UniProt P31994). As to the kind of experiment: reverse ELISA: PAP-IC without peptide on FcγIIb-coated plate.

recombinant TNF-α (Sigma-Aldrich), sequence (P01375 77-233): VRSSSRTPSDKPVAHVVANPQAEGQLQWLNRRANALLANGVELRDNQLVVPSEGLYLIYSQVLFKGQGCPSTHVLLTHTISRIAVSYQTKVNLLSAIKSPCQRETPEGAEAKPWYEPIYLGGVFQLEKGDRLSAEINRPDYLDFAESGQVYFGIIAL

On to “peroxidase-rabbit anti-peroxidase IgG immune complex (PAP complex) (from UniProt P00433 31-338)”, for which the OD405 in experiment [1] amounted to 3.18 OD405; in experiment [2], 1.59 OD405; in experiment [3] it was 1.6 OD405; in experiment [4] it was 1.39 OD405.

For the origin of these results see patent publication US20110218157A1.
